# Laboratory results: the domain aggregation screens of Martell et al. (2025)
# Test: soluble fraction after stress (log2 fold change); higher = more stays soluble; pooled small domains, quantitative proteomics
# Settings: stress: pH 4
# Summary of the method: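 Small protein domains from pooled custom libraries were exposed to pH 4, then quantified with high-throughput quantitative proteomics. The fold change in how much of each domain remains soluble is read as aggregation propensity. It is given as log2, with higher values meaning more stayed soluble.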
row,Sequence,soluble fraction (log2)
1,HMTIAEGLIFRFTEPFKPIDQYTYYIMGDNKVEQIPNFKTLEVMLAQRNQNYLSVRVIEKSQLDDILKEF,-1.73
2,HMTIDETKKQQVKDGLKDIPGVTVEFVGDKAVLKGAVTDANRVKIMQIVMAAKVLSDASGLTSK,0.237
3,HMTIDTSNDLLNQITEATSKGPISILELKDQLNVNASDIEGELRTLIDQHLVFLKDGMLQVIPFD,-0.423
4,HMTIEEMAIENINFSTQLLYKAMKYNGVNTVGDLLEKARSKKDLLTMAYIGNKEAEEIIEKLSELGITI,-1.84
5,HMTIFGWQQDETGKWYRNADGTFYENGWKEIDGAQYYFDENGYVTTGWLELDGKDYYFDEEGKYDSTKVR,-1.25
6,HMTIGPALAIGGNKVEMTQQGKIQVTNPQGKIKTLSQDEFKKQLVKNADKIEAGQDFEFKKD,0.339
7,HMTIKLFPNPSTDFIRVSELSAKENYKIYTILGSEIKRGSVSNNETIDIRNLNSGVYLLKFDNGTTKKIVK,0.124
8,HMTIKTAFPAEDLAKPDNFKSLLYYFGLLTIRGTKWGSTLLAIPNLTVREQLYSYLVEAYRSADL,0.244
9,HMTILKEGMSGPEVERLQDALKRHGFDPGRVDGQFGPGTEAAILAFQKSEGLRADGVAGPKTQQALGLE,0.155
10,HMTIRLKELRKQKGNTQAEVAKILGTNQSQYGKYENERTQLSLDNAKILSDYFGVSVPYLLGLDDNP,-0.486
11,HMTISDTAYQAFLEQLGVGMVVEHKRFGEGVITGMPKGKIRITFEEGTKSFQARALAESGMLK,-0.824
12,HMTISIAEQIFEQLEREILSGAYPRGELLTETKLSEKLGVSRTPIREALRRLDQEHIIKMTTKGAFVLGI,0.198
13,HMTITIGNSDGGYMKMGADGFEVRFSGSDGGNHYAKMYYNNDGWARLTLGSYGEEKARIDSDGMIQTR,0.208
14,HMTKEAIAQKLRIARQESGLTQKDVSAKIGRPQQTIASWEVGRSQPDADTLYSLLLLYKVSPNTFFEYD,-0.237
15,HMTKEEIVVNWLPRYTKRNLEDFGEYILLTNFNKYVEIFAEKFNVPILGRDANMISASAEGITIIN,-0.359
16,HMTKEEREKREKYEKLMKKAEELTAAKNHREVINVLGQAKAYATAAQLKEIEEKIKAATSEMNK,0.257
17,HMTKEGVNISITADGVQLSTESPNRVSIFNVNGTKVWEGIAPANVSLQKGVYILQTANGNTKFV,-0.407
18,HMTKLLITNYERNVLINSYLLKNTPELDDIRRLLVHNKHISENDVSTEMARRIKKHKADWLRVT,0.00962
19,HMTKLTPLEVNLYAKKLANDPEFGSKHIEPGESFSQAEERLRVQLSQQEYVQKYSKYLKKLKASA,0.0433
20,HMTKPAEVRIDELMNAAQTLFLAKGVEATTISEIIASVGVAKGTFYHYFESKQHIVEALKKRYID,-1.03
21,HMTKQNVVPLMYRMIDTLEQFIKADVPFNIETRLARVERLRETMVSSSVTTSEKFRQVLEAYTIETD,-1.53
22,HMTKSEWLRESREHLGLSQTDLRNLLNTALNRSYDKSRISRWENSKENIPAEVVKQIESLIATR,0.406
23,HMTKTRTEILEYLKQNWSVTVSASDIKKHLEEKEIKANTTTIYRYLDKLLAEHVIIKYADAGSERAVYQYS,-0.687
24,HMTKVIEFLVSDEEHGVRADKAFVSHNQKLSRSYFKKLILNGNLYINNKVNLDPSYKLIKGSTVRIILPE,-0.698
25,HMTKVKIDRLFSIVQMLVNRKSVTAKELADYFNVSVRTIYRDIEILSANGIPIYATQGKGGGISILEN,-0.663
26,HMTKYEGLSLDLIIDGVVITHNLKLAKLDMNWLLDRLKENGWDNPKDIFYAYIDTAGNFRFQPKLKASRTR,-0.906

row,Sequence,soluble fraction (log2)
1,HMTKYREVLRMSAGGFSQRVIASTLSISRNTVASTLKRAREQNLDWEAVEQQRLSEKDIANLLFP,0.293
2,HMTLAEEFNNLNGKVITRETLESLLVKAEKEQNSTISNRIRKVLQAYTADTFLIELQHTESA,-0.0269
3,HMTLALKQGSTGSTVKQVQQKLKNWGYYSGAVDGIFGSGTRKAVVLFQKRNKLTADGIVGSKTLEALGIYV,0.0782
4,HMTLDDSIALGRSLLDKGLMDFGTNLANLAEDKLRDFLSQQRYENLDDLFADIARGNRLPMFTAQQLLS,-0.481
5,HMTLDVALSKEIKYMLKEEHYLPGDKLPSERKLAELFHVQRLTVRGALNLLLQDKTIISKPRSGYYVAPKR,0.225
6,HMTLFDESGYTARELEIIREVANGLSNKEIADKLFLSEGTVKNYITGILAKENLSHRTALAVYYLTGRK,-0.558
7,HMTLHEAMEKLFRQVGRPMTTKEIAEKLNENKWYQKADGSPLTPYQIYGRAKNYPALFHREGSIIYLKGS,0.136
8,HMTLKTISLTEAIKNTNEGNYSKLVLDGNELTITEQGKETPSLKTYTEPGTSLKEQGFDLSKVEFEAREQS,-0.011
9,HMTLNQEELMGKTEAILFAGGEPVSLDRIAQVLGVRTPVIDSIVSALQEKYNTPTSGIQLMRL,-0.467
10,HMTLPELTDRELQILQLLSVGNSSQKIAKQLNISTHTVSTHRKQLLRKLGAQNGADLIRRAQKLGIL,0.0897
11,HMTLQEFYARVGGDYNATLSRLPSEALVKKFILKYPGDPSFAQLKDALAAQDWELAFRASHTLKGVAQN,-0.493
12,HMTLSAPMPGTVLKIHVKEGQRVRKGQTLVVLEAMKMEHRIQAPKAGEVTNLHFSEGDRVDMGEILVEIG,-0.905
13,HMTLSDDEFEIIKSLIIDTLKEEALTINALTKKINHKEAKTIQVIRFLLDNGLVAENNLMKLFVI,-1.54
14,HMTLTIEDQLRRLRARLGRGRAFLFSDVLVNPHDRTEIAVTLLALLELIKRREAQASQSYLFGPIEVAAA,-1.33
15,HMTLTLEQAAAIKNSEGEQYGKIESERLAAMSVQIDKAIKSNGHDPNKKADLERKLDAIGIILNARAAG,-0.0482
16,HMTLVKRSAMVTAWSEFAGGRVNSKLIALQNGKAGDWIELENPQSGRKLRGRVQSDGSVRLGS,0.017
17,HMTLYITDQMRKILDYVATNQEIDEKAVMDLLSIQRTRAYLIAKKMTDIGLLQVQGRGKTKTYRLAARS,-0.285
18,HMTLYQIGDKVVHPMHGAGVIDSVVQRKVSGQVQEFYLLKLSVGNMVVMVPTDNTGEIGMRP,-0.777
19,HMTMEQAEFLSRQFNLLSQRLNDPSIEWQDIADLRSEYTGEDEHRDTIRKGAKLFYEYLEAGWIKN,-0.867
20,HMTMKNPNGYGSVINLGKGRRRPWAARVTTGLVYDEKKDKLIQRYKYIGYADTRKEAHQILAEYNAGLPI,0.0906
21,HMTMMTFGEKLQNARKGAGLSQEQLAEKLSVSRSAVAKWENDNGMPDIDNLKAIAQLLDVSIDYLLEN,-0.71
22,HMTMNLIEIGHVVGARRAELGLTQAQLAHLSGLSRQTVVGLEKGTLSDLGVNRVGQVMAVLGLDS,-0.242
23,HMTMPDFGYMRVSYAEARRQLQAIGISVSTIEKVEDPSHTSATGDMVISQYPAAGSKIEGTVTLYVSVAS,0.332
24,HMTMSFSELLRGLRKSRGMSQAELATAVGLSQAQVSQIETGKLLPSPELIEKLAALYGIALGSA,0.0703
25,HMTMTKELGQRIRAERTARKMTQEELAERADLHPTYIGQVERGEKSLTIASLEKIVEGLGISFSDLFEN,-0.0395
26,HMTMVKYRYLTDGELKEFEEEFKHFLIANGLHSEEWERLNNEDSNKAIEVVALFSNLILDKV,-1.06

row,Sequence,soluble fraction (log2)
1,HMTMVLPDAARDKLKAIGLSIEHVEPSPVKDIFTVISREGVSYVSKDGDYIFTGSLFHVKGKDVVNTTEQA,-0.275
2,HMTNEAFITPSVLEWAIKRAGVSAESIHKKAEQWVSGKARPTFKQAVDIAKTLQIPFGYLWLKEPPKEQ,-0.442
3,HMTNELVNVNKLLDVMEPSIPLTALEIMTRLGIKSKETLRNSYLNPAIKLGMINLTSPLKPTSKNQMYYK,0.111
4,HMTNKSKQRRNEILRASQELFNKKGFHDTSINDIMRRVGAAKGVFYYYFETKDQILDTLIEQHIA,-0.471
5,HMTNLTPKQQQIYQFIRASTQANGYPPTLREIGQQVGVRSPSTVKYHLDNLRTLGLLHWDGGKTRSITLP,0.0274
6,HMTNNFIVTWRNYNEEVLEIDVNVKKGSMPKYNGKTPEREGYQFVGWDPEITEVTKDITYVAQFM,-0.0457
7,HMTNQKEITYSQFRQELDQGSIKSVSLQGSRIRGTYVDGGISFRTLAPNDADLIPSLMKHKVDIQVLPED,0.0675
8,HMTNSTGWSKSGGTQVTIREGETIYNLSRRYGVPAKSIMEANGIADATAVRAGQRISIPTYSY,0.22
9,HMTNVDELIGKEAVVVKEIRPYTTGEVKLDGKVWRAMSESKQVYKVDEIVTVLRIEGVTMII,-0.142
10,HMTNVETLVRMRLRSIRTTLGYSLDEIAERSNLSASTVSRIETGKRALSIDVLVPLAAALQVSVDDLLRAE,-1.31
11,HMTNYREILRLRSLGLNHSRIAESMGISRPTVIAALQRAQTQELNWQAAESLSDIDLAQRLNP,-0.2
12,HMTNYYTVTFKEGDTVLKEVSVHSGDGVPYAVAPKRDDIVGWSYNGNTYTTDLNTLKIKKEVTFTAVT,0.183
13,HMTPAIEKTAVIVFINGKKYYVHTVKSGETLYSIAKAYKVDEKVIKEHNPNVADGLRIDQTVKIPVPEQVK,-0.0592
14,HMTPAPHESLTDREMEVLKLLAQGLSNQEIADKLFIGVKTVKYHITNIFSKLGVEDRTQAAIYAHKQGLA,-0.185
15,HMTPDDSYIAGYAAGILKHQFLIDAPELIVRNGTITIPADKVSAGDRAKVVQILSGIPGVTRVEVG,0.368
16,HMTPDVHRGDTITVSLRAGAIRVRVPAKALEEGAAGGEIRVVNLTGGREYRVRVTGPGTAEAIL,0.0112
17,HMTPEGAYTVSEIVKVINSFADEYKVPFTMHVSGYKYEEIAQQLGLPIGTVKSRIFFARKRLQELLN,-1.03
18,HMTPEPVTMYITSLTEFRSEPNTEAGIIKLLDAYEEVEMIESRGEWSKISYGDQIGYILSEFLTAENRT,-1.78
19,HMTPILTAQQVVAALQAAGYRNVHDLEFEHGRWEADAVNAAGQRVELHINPYTGAIERERLD,-0.0319
20,HMTPKTSVPKPGQTVVVRKGDTIYALARIHDITPADLIAWNRLDNPSQIYPGQVIRLYPQGA,0.105
21,HMTPKVDLTVAEDGSASAVIAGLRVEIDAAGKVTAVAPADGTTDLSSVAPEAVKEAMDNALAAYTASKG,0.167
22,HMTPLFNQGEVLKGFVLQTGTNNRVLLQIGTAKVLADAQTPLKAGEQLTLRVEATGPRTVLQILG,0.101
23,HMTPLILTAQEGGERLDAFVASQVEDLTRSAAQRLLEQGAVTSGGKPLKKNAKTTPGMVVEVLLPDPQ,-0.0145
24,HMTPPPTNSREWMEWGISHGLDANLDRSGQVVFYTDDRVVADAAELSGADLERDNMGQFVIYTGAYDKG,-0.743
